Literature values as cited in PMC7020651.

Tests used:
[1] = biological target: Histone H4 1-12 (Homo sapiens) (UniProt P62805)
[2] = biological target: Histone H4 (Homo sapiens) (UniProt P62805); assay: ITC

Substance	Kd [1] [µM]	Kd [2] [µM]
P/CAF bromodomain (from UniProt Q92831)	350	
TAFII250 tandem bromodomains (from UniProt P21675)		40
